# Results as given in patent publication US20260008815A1, “CYCLIC PEPTIDE OR SALT THEREOF, AND USES THEREOF” (FUJIFILM Corporation, priority 2023, published 2026).
# Bridge positions count the residues as written; N and C are the ends. Ends that are not written are not given here. COCH2 = acetyl group that carries the bridge
# Molecular target: T1, Recombinant Human FGFR2 alpha (IIIc) Fc Chimera Protein (Homo sapiens, UniProt P21802)
# T1 construct: Fc (chimera); purchased R&D systems 712-FR-050
# T1 sequence (P21802 with tags, fused parts or gaps limits assumed): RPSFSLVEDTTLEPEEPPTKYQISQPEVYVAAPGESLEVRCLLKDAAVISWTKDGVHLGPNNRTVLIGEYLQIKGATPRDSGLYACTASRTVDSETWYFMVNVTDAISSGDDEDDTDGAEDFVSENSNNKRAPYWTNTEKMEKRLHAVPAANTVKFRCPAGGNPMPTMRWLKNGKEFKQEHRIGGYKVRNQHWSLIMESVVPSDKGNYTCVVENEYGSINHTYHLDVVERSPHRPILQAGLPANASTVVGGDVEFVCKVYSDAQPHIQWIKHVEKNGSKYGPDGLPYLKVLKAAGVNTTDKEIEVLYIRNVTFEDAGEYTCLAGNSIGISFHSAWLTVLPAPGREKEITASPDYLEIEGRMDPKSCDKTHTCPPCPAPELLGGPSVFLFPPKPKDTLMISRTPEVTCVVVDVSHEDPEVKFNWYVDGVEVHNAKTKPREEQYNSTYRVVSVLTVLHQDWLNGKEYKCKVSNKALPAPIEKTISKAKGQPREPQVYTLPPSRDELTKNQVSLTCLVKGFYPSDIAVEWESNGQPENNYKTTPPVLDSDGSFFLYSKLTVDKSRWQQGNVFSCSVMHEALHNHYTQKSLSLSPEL
# Assay: ELISA binding affinity of enzymatically synthesized peptide to FGFR
# Conditions: ELISA luminescence signal at 10 nmol/L peptide, SEQ ID NO: 47 at 10 nmol/L standardized to 1; enzyme synthesis product
# Summary of the method: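 FGFR2 alpha (IIIc) Fc chimera (5 ng/well) was immobilized, and Myc-tagged peptide was bound 3 h at room temperature, then detected with anti-Myc antibody (2 h) and chemiluminescent substrate. Signal was corrected against FGFR-free wells. Score A–D was the luminescence at 10 nmol/L peptide, normalized to cyclic peptide SEQ ID NO: 47.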
row,Substance,Evaluation result of binding affinity to FGFR
1,332 (YCEENYLDPEQYQYFAYFK(COCH2)Y; thioether 2-19 (inferred)) [compound 332],A (0.7 or more)
2,333 (YCEENYLDPEQYQYFIAFK(COCH2)Y; thioether 2-19 (inferred)) [compound 333],A (0.7 or more)
3,334 (YCEENYLDPEQYQYFIYFK(COCH2)A; thioether 2-19 (inferred)) [compound 334],A (0.7 or more)
4,335 (KCEENYLDPEQYQYFIYFK(COCH2)Y; thioether 2-19 (inferred)) [compound 335],A (0.7 or more)
5,336 (YCKENYLDPEQYQYFIYFK(COCH2)Y; thioether 2-19 (inferred)) [compound 336],A (0.7 or more)
6,337 (YCEKNYLDPEQYQYFIYFK(COCH2)Y; thioether 2-19 (inferred)) [compound 337],A (0.7 or more)
7,338 (YCEENKLDPEQYQYFIYFK(COCH2)Y; thioether 2-19 (inferred)) [compound 338],C (0.1 or more and less than 0.5)
8,339 (YCEENYKDPEQYQYFIYFK(COCH2)Y; thioether 2-19 (inferred)) [compound 339],A (0.7 or more)
9,340 (YCEENYLKPEQYQYFIYFK(COCH2)Y; thioether 2-19) [compound 340],C (0.1 or more and less than 0.5)
10,341 (YCEENYLDKEQYQYFIYFK(COCH2)Y; thioether 2-19) [compound 341],A (0.7 or more)
11,342 (YCEENYLDPKQYQYFIYFK(COCH2)Y; thioether 2-19) [compound 342],A (0.7 or more)
12,343 (YCEENYLDPEQYKYFIYFK(COCH2)Y; thioether 2-19) [compound 343],A (0.7 or more)
13,344 (YCEENYLDPEQYQYFKYFK(COCH2)Y; thioether 2-19) [compound 344],A (0.7 or more)
14,345 (YCEENYLDPEQYQYFIKFK(COCH2)Y; thioether 2-19) [compound 345],A (0.7 or more)
15,346 (YCEENYLDPEQYQYFIYFK(COCH2)K; thioether 2-19) [compound 346],A (0.7 or more)
16,347 (MCEENYLDPEQYQYFIYFK(COCH2)Y; thioether 2-19) [compound 347],A (0.7 or more)
17,348 (YCMENYLDPEQYQYFIYFK(COCH2)Y; thioether 2-19) [compound 348],A (0.7 or more)
18,349 (YCEMNYLDPEQYQYFIYFK(COCH2)Y; thioether 2-19) [compound 349],A (0.7 or more)
19,350 (YCEENMLDPEQYQYFIYFK(COCH2)Y; thioether 2-19) [compound 350],A (0.7 or more)
20,351 (YCEENYMDPEQYQYFIYFK(COCH2)Y; thioether 2-19) [compound 351],A (0.7 or more)
21,352 (YCEENYLMPEQYQYFIYFK(COCH2)Y; thioether 2-19) [compound 352],A (0.7 or more)

row,Substance,Evaluation result of binding affinity to FGFR
1,353 (YCEENYLDMEQYQYFIYFK(COCH2)Y; thioether 2-19) [compound 353],A (0.7 or more)
2,354 (YCEENYLDPMQYQYFIYFK(COCH2)Y; thioether 2-19) [compound 354],A (0.7 or more)
3,355 (YCEENYLDPEQMQYFIYFK(COCH2)Y; thioether 2-19) [compound 355],C (0.1 or more and less than 0.5)
4,356 (YCEENYLDPEQYMYFIYFK(COCH2)Y; thioether 2-19) [compound 356],A (0.7 or more)
5,357 (YCEENYLDPEQYQMFIYFK(COCH2)Y; thioether 2-19) [compound 357],C (0.1 or more and less than 0.5)
6,358 (YCEENYLDPEQYQYFMYFK(COCH2)Y; thioether 2-19) [compound 358],A (0.7 or more)
7,359 (YCEENYLDPEQYQYFIMFK(COCH2)Y; thioether 2-19) [compound 359],A (0.7 or more)
8,360 (YCEENYLDPEQYQYFIYFK(COCH2)M; thioether 2-19) [compound 360],A (0.7 or more)
9,361 (QCYYLYWYLYK(COCH2)I; thioether 2-11) [compound 361],C (0.1 or more and less than 0.5)
10,362 (LCYLYQYLYTTK(COCH2)Y; thioether 2-12) [compound 362],C (0.1 or more and less than 0.5)
11,363 (LCYLYQYIYTAK(COCH2)F; thioether 2-12) [compound 363],C (0.1 or more and less than 0.5)
12,364 (QCLQYLYQYLFK(COCH2)I; thioether 2-12) [compound 364],C (0.1 or more and less than 0.5)
13,365 (LCYLYQYLYQAK(COCH2)F; thioether 2-12) [compound 365],C (0.1 or more and less than 0.5)
14,366 (DCQQYYLYLYLWK(COCH2)I; thioether 2-13) [compound 366],C (0.1 or more and less than 0.5)
15,367 (HCQLEYLYTYVLK(COCH2)I; thioether 2-13) [compound 367],C (0.1 or more and less than 0.5)
16,368 (QCLIQDLYAYIFK(COCH2)L; thioether 2-13) [compound 368],C (0.1 or more and less than 0.5)
17,369 (DCLQFLYLYLYQK(COCH2)T; thioether 2-13) [compound 369],C (0.1 or more and less than 0.5)
18,370 (DCQLYYLYQYVLTK(COCH2)V; thioether 2-14) [compound 370],C (0.1 or more and less than 0.5)
19,371 (DCQLWYLYQYLIVK(COCH2)A; thioether 2-14) [compound 371],C (0.1 or more and less than 0.5)
20,372 (QCEQLKYLYQYVLK(COCH2)L; thioether 2-14) [compound 372],C (0.1 or more and less than 0.5)
21,373 (QCYNYQYIYQYIYK(COCH2)I; thioether 2-14) [compound 373],C (0.1 or more and less than 0.5)

row,Substance,Evaluation result of binding affinity to FGFR
1,374 (QCLQDLYRYLYLLK(COCH2)A; thioether 2-14) [compound 374],C (0.1 or more and less than 0.5)
2,375 (DCLQFIYQYLYTVK(COCH2)I; thioether 2-14) [compound 375],C (0.1 or more and less than 0.5)
3,376 (QCIQDLYLYLYFLK(COCH2)T; thioether 2-14 (inferred)) [compound 376],C (0.1 or more and less than 0.5)
4,377 (HCLHYLYQYLYTVK(COCH2)Y; thioether 2-14 (inferred)) [compound 377],C (0.1 or more and less than 0.5)
5,378 (QCPRQLYYLYLYLSK(COCH2)I; thioether 2-15 (inferred)) [compound 378],C (0.1 or more and less than 0.5)
6,379 (NCQLYYTYLYLHTLK(COCH2)F; thioether 2-15 (inferred)) [compound 379],C (0.1 or more and less than 0.5)
7,380 (YCPPQLVYLYQYLYK(COCH2)L; thioether 2-15 (inferred)) [compound 380],C (0.1 or more and less than 0.5)
8,381 (VCQEYYLYQYVYELK(COCH2)Y; thioether 2-15 (inferred)) [compound 381],C (0.1 or more and less than 0.5)
9,382 (PCDRQLYYLYQYIHK(COCH2)T; thioether 2-15 (inferred)) [compound 382],C (0.1 or more and less than 0.5)
10,383 (QCQLYYLYQYAYALK(COCH2)V; thioether 2-15 (inferred)) [compound 383],C (0.1 or more and less than 0.5)
11,384 (QCQLYYLYQYTIAIK(COCH2)T; thioether 2-15 (inferred)) [compound 384],C (0.1 or more and less than 0.5)
12,385 (QCAYYHLYQYLHQLK(COCH2)V; thioether 2-15 (inferred)) [compound 385],B (0.5 or more and less than 0.7)
13,386 (RCHHNFHHARQWGFFHHYK(COCH2)R; thioether 2-19 (inferred)) [compound 386],B (0.5 or more and less than 0.7)
14,387 (RCHHNFHHARQHRFFHHYK(COCH2)R; thioether 2-19 (inferred)) [compound 387],C (0.1 or more and less than 0.5)
15,388 (RCHHNFHHARQHGFFYHYK(COCH2)R; thioether 2-19 (inferred)) [compound 388],C (0.1 or more and less than 0.5)
16,389 (RCHHNFHHARQHGFFWHYK(COCH2)R; thioether 2-19 (inferred)) [compound 389],C (0.1 or more and less than 0.5)
17,390 (YCEENYLDPEQYQYFHYFK(COCH2)R; thioether 2-19 (inferred)) [compound 390],C (0.1 or more and less than 0.5)
18,391 (YCEENYLDPEQYQYFHYFK(COCH2)H; thioether 2-19 (inferred)) [compound 391],A (0.7 or more)
19,392 (YCHENYLDPEQYQYFHYFK(COCH2)Y; thioether 2-19 (inferred)) [compound 392],A (0.7 or more)
